What is called stoichiometry N is a count of units in the complex or per binding partner.

The data set deals with the molecule itself. Briefly: SEC; Hi-Load 16/60 Superdex-200 in PBS pH 7.4; trimers eluted at the expected 81 kDa size. For orientation: Size exclusion chromatography separates by hydrodynamic size, large species first.

B1: Phage T4 LTF needle (gp37; amino acids 799–1026), wild type (domain or fragment)
chain: not shown
notes: bacteriophage T4 long tail fiber protein gp37, needle (domains D10 and D11), amino acids 799-1026; pCDF Duet-1 MCS1; also called gp37 needle; WT gp37; source: E. coli BL21 (DE3) pLysS, co-expressed with chaperones gp38 and gp57A, purified (HisTrap, Superdex-200 SEC, trimer peak)
Regarding B1, the “stoichiometry N” value amounted to 3.

These data come from paper PMC6957217, “Molecular anatomy of the receptor binding module of a bacteriophage long tail fiber” (PLoS Pathogens, 2019).
